From publication PMC10786891, “Massively parallel profiling of RNA-targeting CRISPR-Cas13d”
Substitutions are numbered along the chain they refer to. Names and notes keep the numbering of the source.

T1: EsCas13d, nuclease-dead (Eubacterium siraeum, UniProt B0MS50, R295A;H300A;R849A;H854A)
T1 sequence: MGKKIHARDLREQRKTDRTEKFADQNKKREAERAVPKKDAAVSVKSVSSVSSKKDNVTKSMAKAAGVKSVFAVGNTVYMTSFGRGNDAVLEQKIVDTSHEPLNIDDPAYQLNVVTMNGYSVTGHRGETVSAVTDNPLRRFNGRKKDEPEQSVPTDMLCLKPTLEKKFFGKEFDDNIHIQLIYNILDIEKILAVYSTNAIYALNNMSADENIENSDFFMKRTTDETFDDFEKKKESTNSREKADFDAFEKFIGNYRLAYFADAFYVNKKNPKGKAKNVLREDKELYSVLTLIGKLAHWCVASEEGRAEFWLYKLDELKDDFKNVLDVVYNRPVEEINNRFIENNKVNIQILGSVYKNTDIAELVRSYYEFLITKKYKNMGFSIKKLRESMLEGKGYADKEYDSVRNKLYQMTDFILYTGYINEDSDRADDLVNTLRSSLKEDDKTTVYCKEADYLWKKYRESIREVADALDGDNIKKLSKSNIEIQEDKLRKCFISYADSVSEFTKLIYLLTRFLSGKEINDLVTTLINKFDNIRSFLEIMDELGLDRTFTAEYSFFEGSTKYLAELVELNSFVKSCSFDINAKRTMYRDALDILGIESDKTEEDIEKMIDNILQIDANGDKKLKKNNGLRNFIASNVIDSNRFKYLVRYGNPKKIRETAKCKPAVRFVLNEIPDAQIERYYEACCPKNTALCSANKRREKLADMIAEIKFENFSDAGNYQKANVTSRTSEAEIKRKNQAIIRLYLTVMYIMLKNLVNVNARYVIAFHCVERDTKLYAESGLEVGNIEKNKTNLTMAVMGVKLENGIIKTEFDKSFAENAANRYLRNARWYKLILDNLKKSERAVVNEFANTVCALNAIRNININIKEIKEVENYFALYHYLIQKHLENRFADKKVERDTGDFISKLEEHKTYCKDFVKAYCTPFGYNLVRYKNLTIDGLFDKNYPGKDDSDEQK

B1: target 1 MT 5'PFS CUG 3'PFS UAC (mixed)
RNA 1: CACCCGUGCAAAAAUGCAGGGGUCUAAAACUGAGCGGAUAACCUCUCUAUGG
RNA 2: GGGAAUGGAUCCACAUCUACGAAUUCCUGCCAUAGAGAGGUUAUCCGCUCAUACAGAUCGGAAGAGCACACGU
B2: target 1 MT 5'PFS GCG 3'PFS UGA (mixed)
RNA 1: B1 RNA 1
RNA 2: B1 RNA 2 with C27G, U28C, A53G, C54A
B3: target 1 MT 5'PFS UAG 3'PFS CGU (mixed)
RNA 1: B1 RNA 1
RNA 2: B1 RNA 2 with C27U, U28A, U52C, A53G, C54U
B4: target 1 MT 5'PFS UAA 3'PFS AGA (mixed)
RNA 1: B1 RNA 1
RNA 2: B1 RNA 2 with C27U, U28A, G29A, U52A, A53G, C54A
B5: target 1 G13C,G15U (mixed)
RNA 1: B1 RNA 1
RNA 2: B1 RNA 2 with C27G, G29A, G37U, G39C, U52C, A53C, C54G
B6: target 1 MT 5'PFS GCU 3'PFS CAA (mixed)
RNA 1: B1 RNA 1
RNA 2: B1 RNA 2 with C27G, U28C, G29U, U52C, C54A
B7: target 1 MT 5'PFS UGG 3'PFS UCA (mixed)
RNA 1: B1 RNA 1
RNA 2: B1 RNA 2 with C27U, U28G, A53C, C54A
B8: target 1 MT 5'PFS ACU 3'PFS AUU (mixed)
RNA 1: B1 RNA 1
RNA 2: B1 RNA 2 with C27A, U28C, G29U, U52A, A53U, C54U
B9: target 1 MT 5'PFS GAA 3'PFS AAC (mixed)
RNA 1: B1 RNA 1
RNA 2: B1 RNA 2 with C27G, U28A, G29A, U52A
B10: target 1 MT 5'PFS GUG 3'PFS CUU (mixed)
RNA 1: B1 RNA 1
RNA 2: B1 RNA 2 with C27G, U52C, A53U, C54U
B11: target 1 MT 5'PFS UCG 3'PFS UGU (mixed)
RNA 1: B1 RNA 1
RNA 2: B1 RNA 2 with C27U, U28C, A53G, C54U
B12: target 1 MT 5'PFS AAU 3'PFS AAC (mixed)
RNA 1: B1 RNA 1
RNA 2: B1 RNA 2 with C27A, U28A, G29U, U52A
B13: target 1 MT 5'PFS UCC 3'PFS UUU (mixed)
RNA 1: B1 RNA 1
RNA 2: B1 RNA 2 with C27U, U28C, G29C, A53U, C54U
B14: target 1 C4A (mixed)
RNA 1: B1 RNA 1
RNA 2: B1 RNA 2 with C27G, G29A, C48A, U52C, A53C, C54G
B15: target 1 MT 5'PFS GGA 3'PFS AGU (mixed)
RNA 1: B1 RNA 1
RNA 2: B1 RNA 2 with C27G, U28G, G29A, U52A, A53G, C54U
B16: target 1 MT 5'PFS UAC 3'PFS UCU (mixed)
RNA 1: B1 RNA 1
RNA 2: B1 RNA 2 with C27U, U28A, G29C, A53C, C54U
B17: target 1 MT 5'PFS UGG 3'PFS UCG (mixed)
RNA 1: B1 RNA 1
RNA 2: B1 RNA 2 with C27U, U28G, A53C, C54G
B18: target 1 MT 5'PFS ACU 3'PFS AUC (mixed)
RNA 1: B1 RNA 1
RNA 2: B1 RNA 2 with C27A, U28C, G29U, U52A, A53U
B19: target 1 MT 5'PFS CUC 3'PFS CGA (mixed)
RNA 1: B1 RNA 1
RNA 2: B1 RNA 2 with G29C, U52C, A53G, C54A
B20: target 1 MT 5'PFS GCU 3'PFS CAU (mixed)
RNA 1: B1 RNA 1
RNA 2: B1 RNA 2 with C27G, U28C, G29U, U52C, C54U
B21: target 1 MT 5'PFS AAU 3'PFS AAU (mixed)
RNA 1: B1 RNA 1
RNA 2: B1 RNA 2 with C27A, U28A, G29U, U52A, C54U
B22: target 1 MT 5'PFS UAG 3'PFS CGA (mixed)
RNA 1: B1 RNA 1
RNA 2: B1 RNA 2 with C27U, U28A, U52C, A53G, C54A
B23: target 1 MT 5'PFS UAA 3'PFS AGG (mixed)
RNA 1: B1 RNA 1
RNA 2: B1 RNA 2 with C27U, U28A, G29A, U52A, A53G, C54G
B24: target 1 MT 5'PFS ACU 3'PFS AUA (mixed)
RNA 1: B1 RNA 1
RNA 2: B1 RNA 2 with C27A, U28C, G29U, U52A, A53U, C54A
B25: target 1 MT 5'PFS AGG 3'PFS UAC (mixed)
RNA 1: B1 RNA 1
RNA 2: B1 RNA 2 with C27A, U28G
B26: target 1 MT 5'PFS UCC 3'PFS UUG (mixed)
RNA 1: B1 RNA 1
RNA 2: B1 RNA 2 with C27U, U28C, G29C, A53U, C54G
B27: target 1 MT 5'PFS UAG 3'PFS CGG (mixed)
RNA 1: B1 RNA 1
RNA 2: B1 RNA 2 with C27U, U28A, U52C, A53G, C54G
B28: target 1 insG 3' of 14,insG 3' of 8 (mixed)
RNA 1: B1 RNA 1
RNA 2: GGGAAUGGAUCCACAUCUACGAAUUCGUACCAUAGAGAGGGUUAUGCCGCUCACCGAGAUCGGAAGAGCACACGU
B29: target 1 MT 5'PFS GGC 3'PFS UUC (mixed)
RNA 1: B1 RNA 1
RNA 2: B1 RNA 2 with C27G, U28G, G29C, A53U
B30: target 1 MT 5'PFS UAA 3'PFS CAA (mixed)
RNA 1: B1 RNA 1
RNA 2: B1 RNA 2 with C27U, U28A, G29A, U52C, C54A
B31: target 1 MT 5'PFS GAA 3'PFS AAU (mixed)
RNA 1: B1 RNA 1
RNA 2: B1 RNA 2 with C27G, U28A, G29A, U52A, C54U
B32: target 1 MT 5'PFS GCG 3'PFS UGC (mixed)
RNA 1: B1 RNA 1
RNA 2: B1 RNA 2 with C27G, U28C, A53G
B33: target 1 MT 5'PFS UAA 3'PFS CAG (mixed)
RNA 1: B1 RNA 1
RNA 2: B1 RNA 2 with C27U, U28A, G29A, U52C, C54G
B34: target 1 MT 5'PFS AGG 3'PFS UAG (mixed)
RNA 1: B1 RNA 1
RNA 2: B1 RNA 2 with C27A, U28G, C54G
B35: target 1 MT 5'PFS AGG 3'PFS UAU (mixed)
RNA 1: B1 RNA 1
RNA 2: B1 RNA 2 with C27A, U28G, C54U
B36: target 1 MT 5'PFS GGC 3'PFS UUA (mixed)
RNA 1: B1 RNA 1
RNA 2: B1 RNA 2 with C27G, U28G, G29C, A53U, C54A
B37: target 1 C4A,C7A (mixed)
RNA 1: B1 RNA 1
RNA 2: B1 RNA 2 with C27G, G29A, C45A, C48A, U52C, A53C, C54G
B38: target 1 MT 5'PFS GGA 3'PFS GGG (mixed)
RNA 1: B1 RNA 1
RNA 2: B1 RNA 2 with C27G, U28G, G29A, U52G, A53G, C54G
B39: target 1 MT 5'PFS UCG 3'PFS UGA (mixed)
RNA 1: B1 RNA 1
RNA 2: B1 RNA 2 with C27U, U28C, A53G, C54A
B40: target 1 MT 5'PFS ACG 3'PFS UAA (mixed)
RNA 1: B1 RNA 1
RNA 2: B1 RNA 2 with C27A, U28C, C54A

molecular target: T1, EsCas13d, nuclease-dead; assay: crRNA (strand 1, pre-loaded); Mg2+; 40 mM Tris-HCl pH 7.5, 150 mM NaCl, 6 mM MgCl2, 1 mM DTT, 0.1% Tween-20, 0.2 mg/ml BSA; 25 C; 10 min per concentration, then washed; settings: tags: His6-TwinStrep-SUMO cleaved; N-terminal SNAP kept (SNAP-Surface 488); label: 3' end held by stalled T7 RNA polymerase

Question: Which Kd does the source give for B1 here?
Answer: 4.1 ± 0.7 nM

Question: How did the Kd turn out when B2 was run?
Answer: 20.8 ± 7.75 nM

Question: B3 was tested. Which Kd did it give?
Answer: 63.5 ± 28 nM

Question: B4 was tested. Which Kd did it give?
Answer: 37 ± 6.5 nM

Question: B5 was tested. Which Kd did it give?
Answer: 66 ± 18 nM

Question: For B6, which Kd is on record?
Answer: ~60 nM

Question: Which Kd does the source give for B7 here?
Answer: 70 ± 29 nM

Question: With B8 as the binder, how does the Kd read?
Answer: 53 ± 26 nM

Question: Which Kd does the source give for B9 here?
Answer: ~47 nM

Question: Which Kd does the source give for B10 here?
Answer: 10.2 ± 0.9 nM

Question: Which Kd does the source give for B11 here?
Answer: 57 ± 22 nM

Question: B12 was tested. Which Kd did it give?
Answer: 47.5 ± 18.5 nM

Question: B13 was tested. Which Kd did it give?
Answer: 11 ± 4 nM

Question: How did the Kd turn out when B14 was run?
Answer: 3.8 ± 0.4 nM

Question: For B15, which Kd is on record?
Answer: 22 ± 3.7 nM

Question: For B16, which Kd is on record?
Answer: 9.9 ± 3.2 nM

Question: For B17, which Kd is on record?
Answer: 71.5 ± 22.5 nM

Question: For B18, which Kd is on record?
Answer: ~50 nM

Question: With B19 as the binder, how does the Kd read?
Answer: 80 ± 40 nM

Question: B20 was tested. Which Kd did it give?
Answer: 51 ± 15 nM

Question: How did the Kd turn out when B21 was run?
Answer: 38 ± 17 nM

Question: Which Kd does the source give for B22 here?
Answer: 27 ± 6 nM

Question: Which Kd does the source give for B23 here?
Answer: ~75 nM

Question: With B24 as the binder, how does the Kd read?
Answer: 67 ± 18 nM

Question: How did the Kd turn out when B25 was run?
Answer: 32 ± 13 nM

Question: How did the Kd turn out when B26 was run?
Answer: 13.3 ± 2.45 nM

Question: B27 was tested. Which Kd did it give?
Answer: 55 ± 10 nM

Question: Which Kd does the source give for B28 here?
Answer: 9.7 ± 0.7 nM

Question: For B29, which Kd is on record?
Answer: 12.9 ± 2.4 nM

Question: B30 was tested. Which Kd did it give?
Answer: ~52.5 nM

Question: For B31, which Kd is on record?
Answer: 40.5 ± 13 nM

Question: With B32 as the binder, how does the Kd read?
Answer: 22.5 ± 6.5 nM

Question: How did the Kd turn out when B33 was run?
Answer: 53 ± 22 nM

Question: Which Kd does the source give for B34 here?
Answer: 23 ± 6.5 nM

Question: For B35, which Kd is on record?
Answer: 35 ± 16.5 nM

Question: With B36 as the binder, how does the Kd read?
Answer: 11.7 ± 2.55 nM

Question: How did the Kd turn out when B37 was run?
Answer: 6.6 ± 0.4 nM

Question: B38 was tested. Which Kd did it give?
Answer: 54 ± 18 nM

Question: B39 was tested. Which Kd did it give?
Answer: 33 ± 9.5 nM

Question: With B40 as the binder, how does the Kd read?
Answer: 13.5 ± 5 nM
